Consider 12 molecules from patent publication US20240150797A1, “BIOCATALYTICAL PRODUCTION OF DIHYDROCHALCONES” (Symrise AG, priority 2021, published 2024).

Assay type in all cases: biochemical
Common to all, as to conditions: purified CHI in 50 mM PBS, 100 μM substrate, 25° C.

The nature of data set [1]: Specific activity of purified CHI, absorbance decrease at 384 nm, naringenin chalcone. As to the method:
(§1) E. coli BL21 (DE3) cells containing one of the pET28b plasmids from Table 2 or Table 3 were used to inoculate 1 L LB medium at OD of 0.1. Cells were incubated at 37° C., 250 rpm until the OD reached 0.4-0.6 and induced by supplementing with 0.1 mM IPTG. After protein expression at 28° C., 250 rpm for 16 h, the cells were harvested by centrifugation at 4,000×g for 15 min. The harvested cells were lysed with 0.5 mg/mL lysozyme (Sigma-Aldrich), 0.4 U/mL Benzonase (Sigma-Aldrich) and BugBuster (Merck) at room temperature for 0.5 h to obtain a crude cell extract. The crude extract was centrifuged at 10,000×g for 30 min to remove the pellet. Recombinant proteins were purified by Ni-affinity chromatography (GE Healthcare). The supernatant of the crude extract was loaded on the column with 20 mM imidazole. The column was washed by 5 column volumes of 30 mM imidazole with 20 mM PBS (pH 7.4) and 500 mM NaCl. The target proteins were eluted by 150 mM imidazole with 20 mM PBS (pH 7.4) and 500 mM NaCl. Buffer exchange with 50 mM PBS (pH 7.5) was achieved by ultrafiltration with Amicon Ultra-15 (Merck). The activity of the respective purified enzyme was determined by measuring the absorbance decrease at 384 nm in the reaction mix (CHI in 50 mM PBS with 100 μM of either naringenin chalcone, hesperetin chalcone, eriodictyol chalcone, homoeriodictyol chalcone or 4-O-methyl butein at 25° C.).

The nature of data set [2]: Specific activity of purified CHI, absorbance decrease at 384 nm, eriodictyol chalcone. As for the experimental part:
as §1

Data set [3] in a line: Specific activity of purified CHI, absorbance decrease at 384 nm, homoeriodictyol chalcone. As for the experimental part:
as §1

Data set [4] is described as follows: Specific activity of purified CHI, absorbance decrease at 384 nm, hesperetin chalcone. As for the experimental part: as §1

Residue numbers refer to the chain shown, from its start.

B1: CHIera Mut2: Chalcone isomerase variant 2 from Eubacterium ramulus, genetically engineered (protein, listed as Eubacterium ramulus)
chain: MADFKFEPMRSLIYVDCVSEDYRPKLQRWIYKVHIPDSISQFEPYVTKYAFYPSFPIPPQGDRFGYARMQLTEHHWLVSPLDPRLEIKAIAETFPMDVLVWQGQIPAAAHTDAQIDSDGDAGRAAGKSNNAEGNPFIFAFLPMWWEKDLKGKGRTIEDGANYRFNMTIGFPEGVDKAEGEKWLFEKVVPILQAAPECTRVLASAVKKDINGCVMDWVLEIWFENQSGWYKVMVDDMKALEKPSWAQQDAFPFLKPYHNVCSAAVADYTPSNNLANYRGYITMR
As to B1, the “Specific activity, Naringenin chalcone” value in data set [1] was determined as 4.4. Moreover, in data set [2], the “Specific activity, Eriodictyol chalcone” value stood at 8.3. Besides, in data set [3], the “Specific activity, Homoeriodctiol chalcone” value was found to be 3.5. In data set [4], the “Specific activity, Hesperetin chalcone” value is recorded as 11.5.

B2: CHIera Mut7: Chalcone isomerase variant 7 from Eubacterium ramulus, genetically engineered (protein, listed as Eubacterium ramulus)
chain: B1 chain with Q41T, P80E, K88R, R123D, G126R
On to B2, for which the “Specific activity, Naringenin chalcone” value in data set [1] is on record as 61.4. In data set [2], the “Specific activity, Eriodictyol chalcone” value was determined as 181.3. Further, the “Specific activity, Homoeriodctiol chalcone” value in data set [3] is given as 62.2. For the same molecule, the “Specific activity, Hesperetin chalcone” value in data set [4] is recorded as 28.4.

B3: CHIera Mut10: Chalcone isomerase variant 10 from Eubacterium ramulus, genetically engineered (protein, listed as Eubacterium ramulus)
chain: B1 chain with P80I, R123D, G126R
For B3, the “Specific activity, Naringenin chalcone” value in data set [1] was determined as 26.4. Also, the “Specific activity, Eriodictyol chalcone” value in data set [2] turned out to be 60.0. Moreover, the “Specific activity, Homoeriodctiol chalcone” value in data set [3] is on record as 17.9. For the same molecule, in data set [4], the “Specific activity, Hesperetin chalcone” value was 96.4.

B4: CHIera Mut9: Chalcone isomerase variant 9 from Eubacterium ramulus, genetically engineered (protein, listed as Eubacterium ramulus)
chain: B1 chain with P80M, R123N, G126R
For B4, the “Specific activity, Naringenin chalcone” value in data set [1] amounted to 67.5. For the same molecule, the “Specific activity, Eriodictyol chalcone” value in data set [2] was determined as 43.7. Moreover, in data set [3], the “Specific activity, Homoeriodctiol chalcone” value is reported as 14.4. The “Specific activity, Hesperetin chalcone” value in data set [4] came out at 57.4.

B5: CHIera Mut4: Chalcone isomerase variant 4 from Eubacterium ramulus, genetically engineered (protein, listed as Eubacterium ramulus)
chain: B1 chain with P80E, G126K
B5: in data set [1], the “Specific activity, Naringenin chalcone” value was 2.3. Further, the “Specific activity, Eriodictyol chalcone” value in data set [2] was 8.9. Also, the “Specific activity, Homoeriodctiol chalcone” value in data set [3] was determined as 4.8. Moreover, the “Specific activity, Hesperetin chalcone” value in data set [4] is on record as 4.7.

B6: CHI10: Chalcone isomerase from Clostridium sp. SY8519, access no. WP_013977558.1 (protein)
chain: ADFEFNPMRSLIYIDCVKNDYRHKLQYWLYKHHIPDSIAKFEPYVSKYAFYSALPVPEDGEEFGTYNYQLTEHYWLCNPLTADFAVNSLQESFTPDVLKWQGIIPDIDITPEMMAAMQNADDARASEGSEAPGFDLPPFIFAFLPLSWEFQTKGEKLTIEDGPNYRWQFLVKYPEAADAEQADKWLMEEVIPAFAQMDEVKRILSSKVKQEVNGCVYYRVVEMWFDSPSDWHRAVKEKTGAISKPEWASTDSFPYLRPKHEMASIFLSDIPTTDNLLQYRGFIPMR
modifications: Clostridium sp. SY8519
As to B6, the “Specific activity, Naringenin chalcone” value in data set [1] is on record as 0.7. Also, the “Specific activity, Eriodictyol chalcone” value in data set [2] is 2.5. For the same molecule, the “Specific activity, Homoeriodctiol chalcone” value in data set [3] came to 0.2. Further, the “Specific activity, Hesperetin chalcone” value in data set [4] turned out to be 1.2.

B7: CHI13: Chalcone isomerase from Lactobacillus sp. 54-2, access no. WP_125715151.1 (protein)
chain: SFEFRPMRSVIYVDVIKEKYRPKLLHWLYGHHIQDSISKFGPYVTKYAFYNAFPVPPEGERFGTRRMQMTEHYWLINEMTPEMKNNAITEYMPKDVLRWQGNIPDTDAAAAGNVDGDTGRSAGGANGCQPFVFAHVPINWEEDYKGDGRMVADGPNYRWQFVIKYPENLTEAAGEAWFHDEVVPYFKGRPEVHRFMSSRIMQDVVGCEFERLVEMWFDSEDEWYTAAVAGTTALKKPSWAQQNQFPFLTPQFNIVGMFLPDIPTSDNLAQYRGYITMR
modifications: Lactobacillus sp. 54-2
For B7, in data set [1], the “Specific activity, Naringenin chalcone” value is reported as 32.7. In addition, the “Specific activity, Eriodictyol chalcone” value in data set [2] amounted to 66.2. Further, the “Specific activity, Homoeriodctiol chalcone” value in data set [3] is 21.7. The “Specific activity, Hesperetin chalcone” value in data set [4] was found to be 2.0.

B8: CHI7: Chalcone isomerase from Clostridium sp. SY8519, access no. WP_013978403.1 (protein)
chain: ADFKFEPMRSFIYVNCAKEDYRPKLQRWLYKTHVPDSIGQFEPYVTKYAFYPSFPTPPEGERFGYCSMQLTEHHWMVSDFDERLGIKAIAETFPPEVLLWQGNITEGMLEAMKKNGGAPGDDGGDSGNEARSTNMEGANPFIFCFAPYWWEDDIKGKGRTIEDGANYRWNVAIGYPEGVSAEEGDRWLFEEVIPVFEAAPECTRILHSKVKKEINGGSGMEHILEFWFENQSGWYQTAVEATKTLKKPAWAQQDQFPFLKPYHKFISVAVADFTMANNLVNYHGYIPRR
modifications: Clostridium sp. SY8519
Consider B8, for which the “Specific activity, Naringenin chalcone” value in data set [1] came out at 68.3. Moreover, the “Specific activity, Eriodictyol chalcone” value in data set [2] is listed as 123.6. In addition, the “Specific activity, Homoeriodctiol chalcone” value in data set [3] amounted to 50.2. For the same molecule, the “Specific activity, Hesperetin chalcone” value in data set [4] is given as 6.4.

B9: CHI14: Chalcone isomerase from Butyrivibrio sp. AC2005, access no. WP_026657636.1 (protein)
chain: AYEFNLMRSLIYVGLAKEEYRAKLEHWLYNHHVPESISKFSPYVTKYAFYQAYPTPPEGDRFGARKMQLTEHYWLVNEHLPEMANNIFQEFMPMDVLRWQGCIPDVDSATVHDNAESGDAGRAVGGGDFPPFIFAFVPINWEEDFKGKERTPVNGPNFRWQFLIQYPEGCSKDEGERWFHEEVVPFLTGSVRVNRLVSSKVKVNYGAPSAQFDRLVEVWFDGPEEWYDLCVNLAKDKLKKPEWAQQDTFPFLKPQHNIASMFLGDRCTSDNLTQYRGFITMR
modifications: Butyrivibrio sp. AC2005
Regarding B9, in data set [1], the “Specific activity, Naringenin chalcone” value is listed as 45.9. For the same molecule, in data set [2], the “Specific activity, Eriodictyol chalcone” value came to 50.4. The “Specific activity, Homoeriodctiol chalcone” value in data set [3] is 28.8. Further, the “Specific activity, Hesperetin chalcone” value in data set [4] was found to be 2.1.

B10: CHI11: Chalcone isomerase from Eubacterium sp., access no. SCK02381.1 (protein)
chain: TKNMLGFEPMRSLIYVDVAKEDYRVKLENWLYKYHIPDSISQFGPYVSKYAFYQALPVPEGGERFGAIKMQLTEHYWLANPNNIAQFDHHKALTEYFPPDVLKWQGNLPDEDFQCENVEGDEARAVKGDASKGTVPFIFAFVPVWWEEDYKGAGRTIEDGPNYRWQMVIKFPDDAKDTGDKWLRDEFIPAFVECEETTRILSSKVIKEANGCEFDRVVEMWFEGPSAWKAAVGKAAKKVRRPAWFETEDFPYLTQSYGISSIFLSDIARSDNMTQYNGYVTMR
modifications: Eubacterium sp
Take B10: the “Specific activity, Naringenin chalcone” value in data set [1] is on record as 23.2. The “Specific activity, Eriodictyol chalcone” value in data set [2] was found to be 10.8. The “Specific activity, Homoeriodctiol chalcone” value in data set [3] came out at 11.4. Besides, the “Specific activity, Hesperetin chalcone” value in data set [4] came out at 5.8.

B11: CHI3: Chalcone isomerase from Clostridium sp. JN500901, access no. WP_119972745.1 (protein)
chain: SIEFKPMRSLIYVDVVKEDYRHMLKHWLYYHHIPDSISQFGPYVTKYAFYPALPTPPDGERFGTHRMQLTEHYWLVNPLTPEFKNKTMTEYFPVDVLKWQGNVPDDNEVAILEGKETEKVESGDAARSTGGDNGMPPFIWAFVPISWEEDLKGEGRSMEDGPNYRWQFVMKYPDGVPMEEGDKWFYKEVIPKFQDSPDVTRILTSKIIQNINDCPYQRIVEMWFNCPSGWHRAAVEKAREIKKPSWAKYDEFPYLKPKFEISSLFLTDIAESDNYTQYRGFIPMR
modifications: Clostridium sp. JN500901
Turning to B11, the “Specific activity, Naringenin chalcone” value in data set [1] worked out at 20.0. In addition, in data set [2], the “Specific activity, Eriodictyol chalcone” value turned out to be 13.2. The “Specific activity, Homoeriodctiol chalcone” value in data set [3] was determined as 7.8. In addition, in data set [4], the “Specific activity, Hesperetin chalcone” value is on record as 12.8.

B12: CHI15: Chalcone isomerase from Clostridioides difficile, access no. WP_095917646.1 (protein)
chain: ADFEFKIMRSLIYVGLAKEEYRPKLMDWLYRHHIPDSISTFGPYCTKYAFYQAYPTPNEGERFGARKMQLTEHYWLVDEHMPEMANRIMTEYMPMDVLRWQGCIPDVENKRVHENVESGDAGRAVGGDNGCPPFIFAFVPINWEEDFRGKGRTVQDGPNYRWQFMIKYPDGISKEEGEKWFYDEVVPYFTNCCYVNRFVSSKIMINYGATAFDRVSELWFEGEEEWYKAVVEETKSFIKKPEWAQEEEFPYLKPQFNIASVFLGDIATMDAYSQYRGYIPMR
modifications: Clostridioides difficile
Take B12: the “Specific activity, Naringenin chalcone” value in data set [1] stood at 14.5. In data set [2], the “Specific activity, Eriodictyol chalcone” value turned out to be 11.7. Also, the “Specific activity, Homoeriodctiol chalcone” value in data set [3] turned out to be 2.2. Moreover, in data set [4], the “Specific activity, Hesperetin chalcone” value is on record as 1.3.
